Results on 15 molecules are retold here after patent US12630600B2 (MEDIMMUNE LIMITED, priority 2022, dated 2026).

B1: Peptide 268 (peptide)
peptide: H[Aib]HGS[αMeF]TSDVSK[αMeF]LDSRAAK([AEEA-γGlu-C20 diacid])D[αMeF]VQ[Aib]IANT-NH2
modifications: N-terminus assumed
SMILES: CC[C@H](C)[C@H](NC(=O)C(C)(C)NC(=O)[C@H](CCC(N)=O)NC(=O)[C@@H](NC(=O)[C@](C)(Cc1ccccc1)NC(=O)[C@H](CC(=O)O)NC(=O)[C@H](CCCCNC(=O)COCCOCCNC(=O)CC[C@H](NC(=O)CCCCCCCCCCCCCCCCCCC(=O)O)C(=O)O)NC(=O)[C@H](C)NC(=O)[C@H](C)NC(=O)[C@H](CCCNC(=N)N)NC(=O)[C@H](CO)NC(=O)[C@H](CC(=O)O)NC(=O)[C@H](CC(C)C)NC(=O)[C@](C)(Cc1ccccc1)NC(=O)[C@H](CCCCN)NC(=O)[C@H](CO)NC(=O)[C@@H](NC(=O)[C@H](CC(=O)O)NC(=O)[C@H](CO)NC(=O)[C@@H](NC(=O)[C@](C)(Cc1ccccc1)NC(=O)[C@H](CO)NC(=O)CNC(=O)[C@H](Cc1c[nH]cn1)NC(=O)C(C)(C)NC(=O)[C@@H](N)Cc1c[nH]cn1)[C@@H](C)O)C(C)C)C(C)C)C(=O)N[C@@H](C)C(=O)N[C@@H](CC(N)=O)C(=O)N[C@H](C(N)=O)[C@@H](C)O
B2: Peptide 269 (peptide)
peptide: H[Aib]HGS[αMeF]TSDVSK[αMeF]LDSRAAK([PEG4-γGlu-γGlu-C20 diacid])D[αMeF]VQ[Aib]IANT-NH2
modifications: N-terminus assumed
SMILES: CC[C@H](C)[C@H](NC(=O)C(C)(C)NC(=O)[C@H](CCC(N)=O)NC(=O)[C@@H](NC(=O)[C@](C)(Cc1ccccc1)NC(=O)[C@H](CC(=O)O)NC(=O)[C@H](CCCCNC(=O)CCOCCOCCOCCOCCNC(=O)CC[C@H](NC(=O)CC[C@H](NC(=O)CCCCCCCCCCCCCCCCCCC(=O)O)C(=O)O)C(=O)O)NC(=O)[C@H](C)NC(=O)[C@H](C)NC(=O)[C@H](CCCNC(=N)N)NC(=O)[C@H](CO)NC(=O)[C@H](CC(=O)O)NC(=O)[C@H](CC(C)C)NC(=O)[C@](C)(Cc1ccccc1)NC(=O)[C@H](CCCCN)NC(=O)[C@H](CO)NC(=O)[C@@H](NC(=O)[C@H](CC(=O)O)NC(=O)[C@H](CO)NC(=O)[C@@H](NC(=O)[C@](C)(Cc1ccccc1)NC(=O)[C@H](CO)NC(=O)CNC(=O)[C@H](Cc1c[nH]cn1)NC(=O)C(C)(C)NC(=O)[C@@H](N)Cc1c[nH]cn1)[C@@H](C)O)C(C)C)C(C)C)C(=O)N[C@@H](C)C(=O)N[C@@H](CC(N)=O)C(=O)N[C@H](C(N)=O)[C@@H](C)O
B3: Peptide 271 (peptide)
peptide: H[Aib]HGS[αMeF]TSDVSK[αMeF]LDSRAAK([γGlu-C18 diacid])D[αMeF]VQ[Aib]IANT-NH2
modifications: N-terminus assumed
SMILES: CC[C@H](C)[C@H](NC(=O)C(C)(C)NC(=O)[C@H](CCC(N)=O)NC(=O)[C@@H](NC(=O)[C@](C)(Cc1ccccc1)NC(=O)[C@H](CC(=O)O)NC(=O)[C@H](CCCCNC(=O)CC[C@H](NC(=O)CCCCCCCCCCCCCCCCC(=O)O)C(=O)O)NC(=O)[C@H](C)NC(=O)[C@H](C)NC(=O)[C@H](CCCNC(=N)N)NC(=O)[C@H](CO)NC(=O)[C@H](CC(=O)O)NC(=O)[C@H](CC(C)C)NC(=O)[C@](C)(Cc1ccccc1)NC(=O)[C@H](CCCCN)NC(=O)[C@H](CO)NC(=O)[C@@H](NC(=O)[C@H](CC(=O)O)NC(=O)[C@H](CO)NC(=O)[C@@H](NC(=O)[C@](C)(Cc1ccccc1)NC(=O)[C@H](CO)NC(=O)CNC(=O)[C@H](Cc1c[nH]cn1)NC(=O)C(C)(C)NC(=O)[C@@H](N)Cc1c[nH]cn1)[C@@H](C)O)C(C)C)C(C)C)C(=O)N[C@@H](C)C(=O)N[C@@H](CC(N)=O)C(=O)N[C@H](C(N)=O)[C@@H](C)O

Starred links: 1 amine or outer side, 2 acyl side, 3 side chain; linkers in the order of their positions; H or OH if unused. Non-standard residues stand in square brackets, D forms with d. Groups on a side chain read outwards from the residue. No end group written: not given here. *: point of attachment. C20 diacid = O=C(O)CCCCCCCCCCCCCCCCCCC(=O)*; C18 diacid = O=C(O)CCCCCCCCCCCCCCCCC(=O)*; γGlu = O=C(O)[C@H](CCC(=O)[*:2])N[*:1]; αMeF = C[C@](N)(Cc1ccccc1)C(=O)O; PEG4 = NCCOCCOCCOCCOCCC(=O)O; AEEA = NCCOCCOCC(=O)O; Aib = CC(C)(N)C(=O)O

For one assay, the target named is human glucagon receptor (human, UniProt P47871). The assay can be described thus: cell-based or functional assay.
With H[Aib]HGS[αMeF]TSDVSK[αMeF]LDSRAAK([AEEA-AEEA-C20 diacid])D[αMeF]VQ[Aib]IANT-NH2 [Peptide 277], the “hGluc-R EC50 (pM)” value turned out to be 57.3 pM.

B1: the “hGluc-R EC50 (pM)” value came out at 29.3 pM.

On to H[Aib]HGS[αMeF]TSDVSK[αMeF]LDSRAAK([AEEA-AEEA-γGlu-C20 diacid])D[αMeF]VQ[Aib]IANT-NH2 [Peptide 280], for which the “hGluc-R EC50 (pM)” value came to 155 pM.

On to H[Aib]HGS[αMeF]TSDVSK[αMeF]LDSRAAK([AEEA-C18 diacid])D[αMeF]VQ[Aib]IANT-NH2 [Peptide 273], for which the “hGluc-R EC50 (pM)” value was determined as 23.3 pM.

For the molecule B2, the “hGluc-R EC50 (pM)” value came out at 271 pM.

On to H[Aib]HGS[αMeF]TSDVSK[αMeF]LDSRAAK([AEEA-C20 diacid])D[αMeF]VQ[Aib]IANT-NH2 [Peptide 278], for which the “hGluc-R EC50 (pM)” value was found to be 83.5 pM.

For the molecule H[Aib]HGS[αMeF]TSDVSK[αMeF]LDSRAAK([AEEA-γGlu-γGlu-C18 diacid])D[αMeF]VQ[Aib]IANT-NH2 [Peptide 274], the “hGluc-R EC50 (pM)” value amounted to 31.3 pM.

For the molecule H[Aib]HGS[αMeF]TSDVSK[αMeF]LDSRAAK([AEEA-AEEA-γGlu-γGlu-C20 diacid])D[αMeF]VQ[Aib]IANT-NH2 (not fully specified) [Peptide 282], the “hGluc-R EC50 (pM)” value is 1140 pM.

Turning to H[Aib]HGS[αMeF]TSDVSK[αMeF]LDSRAAK([γGlu-C20 diacid])D[αMeF]VQ[Aib]IANT-NH2 [Peptide 276], the “hGluc-R EC50 (pM)” value is 91.4 pM.

As to H[Aib]HGS[αMeF]TSDVSK[αMeF]LDSRAAK([γGlu-γGlu-C20 diacid])D[αMeF]VQ[Aib]IANT-NH2 [Peptide 275], the “hGluc-R EC50 (pM)” value was 175 pM.

H[Aib]HGS[αMeF]TSDVSK[αMeF]LDSRAAK([AEEA-γGlu-γGlu-C20 diacid])D[αMeF]VQ[Aib]IANT-NH2 [Peptide 279]: the “hGluc-R EC50 (pM)” value was 150 pM.

In the case of B3, the “hGluc-R EC50 (pM)” value is 28 pM.

Regarding H[Aib]HGS[αMeF]TSDVSK[αMeF]LDSRAAK([AEEA-AEEA-γGlu-γGlu-C20 diacid])D[αMeF]VQ[Aib]IANT-NH2 [Peptide 281], the “hGluc-R EC50 (pM)” value came to 1040 pM.

On to H[Aib]HGS[αMeF]TSDVSK[αMeF]LDSRAAK([AEEA-AEEA-C18 diacid])D[αMeF]VQ[Aib]IANT-NH2 [Peptide 272], for which the “hGluc-R EC50 (pM)” value was found to be 14.3 pM.

On to H[Aib]HGS[αMeF]TSDVSK[αMeF]LDSRAAK([γGlu-γGlu-C18 diacid])D[αMeF]VQ[Aib]IANT-NH2 [Peptide 270], for which the “hGluc-R EC50 (pM)” value is 31.3 pM.

A further assay concerns the target human GLP-1 receptor (human, UniProt P43220). The assay can be described thus: cell-based or functional assay.
For H[Aib]HGS[αMeF]TSDVSK[αMeF]LDSRAAK([AEEA-AEEA-C20 diacid])D[αMeF]VQ[Aib]IANT-NH2 [Peptide 277], the “hGLP-1R EC50 (pM)” value came out at 49.5 pM.

On to B1, for which the “hGLP-1R EC50 (pM)” value stood at 39.5 pM.

In the case of H[Aib]HGS[αMeF]TSDVSK[αMeF]LDSRAAK([AEEA-AEEA-γGlu-C20 diacid])D[αMeF]VQ[Aib]IANT-NH2 [Peptide 280], the “hGLP-1R EC50 (pM)” value came to 78.3 pM.

As for H[Aib]HGS[αMeF]TSDVSK[αMeF]LDSRAAK([AEEA-C18 diacid])D[αMeF]VQ[Aib]IANT-NH2 [Peptide 273], the “hGLP-1R EC50 (pM)” value is 22.1 pM.

Take B2: the “hGLP-1R EC50 (pM)” value was 52 pM.

In the case of H[Aib]HGS[αMeF]TSDVSK[αMeF]LDSRAAK([AEEA-C20 diacid])D[αMeF]VQ[Aib]IANT-NH2 [Peptide 278], the “hGLP-1R EC50 (pM)” value is 78.9 pM.

As for H[Aib]HGS[αMeF]TSDVSK[αMeF]LDSRAAK([AEEA-γGlu-γGlu-C18 diacid])D[αMeF]VQ[Aib]IANT-NH2 [Peptide 274], the “hGLP-1R EC50 (pM)” value stood at 27.1 pM.

Regarding H[Aib]HGS[αMeF]TSDVSK[αMeF]LDSRAAK([AEEA-AEEA-γGlu-γGlu-C20 diacid])D[αMeF]VQ[Aib]IANT-NH2 (not fully specified) [Peptide 282], the “hGLP-1R EC50 (pM)” value is 1230 pM.

Consider H[Aib]HGS[αMeF]TSDVSK[αMeF]LDSRAAK([γGlu-C20 diacid])D[αMeF]VQ[Aib]IANT-NH2 [Peptide 276], for which the “hGLP-1R EC50 (pM)” value was determined as 143 pM.

H[Aib]HGS[αMeF]TSDVSK[αMeF]LDSRAAK([γGlu-γGlu-C20 diacid])D[αMeF]VQ[Aib]IANT-NH2 [Peptide 275]: the “hGLP-1R EC50 (pM)” value turned out to be 111 pM.

For the molecule H[Aib]HGS[αMeF]TSDVSK[αMeF]LDSRAAK([AEEA-γGlu-γGlu-C20 diacid])D[αMeF]VQ[Aib]IANT-NH2 [Peptide 279], the “hGLP-1R EC50 (pM)” value is 86.5 pM.

For B3, the “hGLP-1R EC50 (pM)” value turned out to be 54.6 pM.

H[Aib]HGS[αMeF]TSDVSK[αMeF]LDSRAAK([AEEA-AEEA-γGlu-γGlu-C20 diacid])D[αMeF]VQ[Aib]IANT-NH2 [Peptide 281]: the “hGLP-1R EC50 (pM)” value amounted to 155 pM.

Take H[Aib]HGS[αMeF]TSDVSK[αMeF]LDSRAAK([AEEA-AEEA-C18 diacid])D[αMeF]VQ[Aib]IANT-NH2 [Peptide 272]: the “hGLP-1R EC50 (pM)” value worked out at 15.7 pM.

As to H[Aib]HGS[αMeF]TSDVSK[αMeF]LDSRAAK([γGlu-γGlu-C18 diacid])D[αMeF]VQ[Aib]IANT-NH2 [Peptide 270], the “hGLP-1R EC50 (pM)” value stood at 24.4 pM.
